Assay results from publication PMC12692541.
pKd: −log10 of the molar value.

System: HalTzlAAA homotrinucleopeptide (synthetic (designed))
Assay: fluorescence anisotropy
Conditions: none (unmodified); TB (tris/borate) buffer, 25 °C, 20 min incubation; RNA refolded at 90 °C for 5 min; salt and pH not given in the material

For GCAGACUUUUAAUCUGC [ASLLys3], the pKd was 4.12.
